In publication PMC6111544, “Development of a Novel Q-body Using an In Vivo Site-Specific Unnatural Amino Acid Incorporation System” (Sensors (Basel, Switzerland), 2018):
Like-named read-outs stand apart in the source and are kept apart here.

Tests used:
[1] = target: T1, Nef protein (HIV-1 NL43), wild type (HIV-1 NL4-3 (NL43), strain)
T1 chain: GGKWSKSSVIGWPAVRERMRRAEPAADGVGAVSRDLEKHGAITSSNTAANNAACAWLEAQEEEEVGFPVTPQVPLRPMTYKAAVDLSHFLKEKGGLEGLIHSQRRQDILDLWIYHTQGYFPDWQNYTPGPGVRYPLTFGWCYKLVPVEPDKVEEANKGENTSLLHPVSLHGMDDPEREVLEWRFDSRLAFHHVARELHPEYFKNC

[2] = target: T1, Nef protein (HIV-1 NL43), wild type; experiment: far-Western, overlay or dot blot; Western blotting: Nef wt and Nef Δ2-11 resolved by SDS-PAGE, transferred to PVDF, probed with the anti-Nef antibody, detected with anti-streptavidin IgG-HRP; anti-His-tag antibody as control; conditions: both partners purified

B1: anti-Nef (antibody, V domains shown)
VH: QVQLQQSGAELVKPGASVKLSCTASGFNIKDTYMHWVKQRPEQGLEWIGRIDPANGNTKYDPKFQGKATITADTSSNTAYLQLSSLTSEDTAVYYCASYYGIYWGQGTTLTVSS
VL: DIKMTQSPSSLSASLGERVSLTCRASQEISGYLSWLQQKPDGTIKRLIYAVSTLDSGVPKRFSGSRSGSDYSLTISSLESEDFADYYCLQYATYPLTFGAGTKLELK
Does B1 bind [1]?
Result: binds

B2: anti-Nef antibody (single-chain variable fragment for which the antigen is HIV Nef protein) (scFv, V domains shown)
VH: EVKLVESGAELVRPGASVKLSCTASGFNIKDDYMHWVKQRPEQGLEWIGWIDPENGDTEYASKFQGKATITADTSSNTAYLQLSSLTSEDTAVYYCTTRDVWGAGTTVTVMA
VL: DIKMTQSPSSLSASLGERVSLTCRASQEISGYLSWLQQKPDGTIKRLIYAVSTLDSGVPKRFSGSRSGSDYSLTISSLESEDFADYYCLQYATYPLTFGAGTKLELK
notes: scFv isolated in vitro from a constructed mouse antibody library; Section 2.4 describes expression in E. coli MV1184 and purification on an IgG-conjugated column for the antibody vectors; also called wt anti-Nef antibody; scFv
Does B2 bind [2]?
Result: binds
